# Assay results published in PMC7504393 (International Journal of Molecular Sciences, 2020).
# Legend:
# [1] = molecular target: T1, recombinant human YKL-40 protein (hYKL-40) (Homo sapiens, UniProt P36222); assay: ELISA; hYKL-40 coated at 2 ug/mL (30 uL per well, overnight, 4 °C); serially diluted Fabs, 1 h at 37 °C; detection with HRP-conjugated StrepMAB-Classic; apparent affinity (EC50); settings: both partners purified
# T1 construct: human YKL-40 (chitinase-3-like 1, CHI3L1), recombinant protein from Sino Biological; also called chitinase-3-like 1; CHI3L1; source: bought: Sino Biological
# T1 sequence (P36222 22-383): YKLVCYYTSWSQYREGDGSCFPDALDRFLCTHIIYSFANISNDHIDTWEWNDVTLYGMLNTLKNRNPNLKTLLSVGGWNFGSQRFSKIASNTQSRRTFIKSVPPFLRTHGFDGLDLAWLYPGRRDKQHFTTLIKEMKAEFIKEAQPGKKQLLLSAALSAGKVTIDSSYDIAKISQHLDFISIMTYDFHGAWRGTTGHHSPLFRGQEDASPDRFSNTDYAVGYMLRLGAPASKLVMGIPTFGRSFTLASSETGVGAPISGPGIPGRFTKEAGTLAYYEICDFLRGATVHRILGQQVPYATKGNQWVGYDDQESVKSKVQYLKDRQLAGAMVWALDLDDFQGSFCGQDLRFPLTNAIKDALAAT
# [2] = molecular target: T1, recombinant human YKL-40 protein …; assay: ELISA; soluble ELISA of serially diluted IgGs on immobilized hYKL-40 surfaces; apparent affinity (EC50); settings: both partners purified
# [3] = molecular target: T2, native YKL-40 from murine cells (Mus musculus, UniProt Q61362); assay: western blot; H1 (IgG) as the probing antibody on lysates of human and murine cells (Figure S5); settings: one partner purified
# T2 construct: mouse YKL-40 (chitinase-3-like protein 1), endogenous in murine cells; source: endogenous, murine cell lysates (including mouse lung cells)
# T2 sequence (Q61362 30-389): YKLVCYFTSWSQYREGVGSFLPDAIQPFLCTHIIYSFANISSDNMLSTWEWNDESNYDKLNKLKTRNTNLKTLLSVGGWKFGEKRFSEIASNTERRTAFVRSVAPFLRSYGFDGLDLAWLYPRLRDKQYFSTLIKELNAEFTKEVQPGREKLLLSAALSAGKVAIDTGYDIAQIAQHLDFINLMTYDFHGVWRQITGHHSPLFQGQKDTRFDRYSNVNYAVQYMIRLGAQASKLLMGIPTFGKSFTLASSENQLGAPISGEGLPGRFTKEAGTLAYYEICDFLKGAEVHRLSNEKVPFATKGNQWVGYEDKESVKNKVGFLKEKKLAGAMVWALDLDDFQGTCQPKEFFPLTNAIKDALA
# recombinant mouse YKL-40 = molecular target: T3, recombinant mouse YKL-40 (Mus musculus, UniProt Q61362); assay: western blot; H1 (IgG) as the probing antibody on recombinant human and mouse YKL-40 (Figure S5); settings: both partners purified
# T3 construct: mouse YKL-40 (chitinase-3-like protein 1), recombinant
# T3 sequence (Q61362 30-389): as above
# [4] = molecular target: T1, recombinant human YKL-40 protein …; assay: BLI; Octet QK384; hYKL-40 amine-coupled to AR2G tips (15 ug/mL, 10 mM sodium acetate pH 5.0); H1 (IgG) 50 nM~0 nM in 2-fold dilutions in PBS with 0.09% Tween 20; 1:1 binding model; apparent KD; settings: both partners purified
Binder,EC50 [1],EC50 [2],binding result [3],binding result (recombinant mouse YKL-40),Kd [4]
"H1 (Fab), human anti-hYKL-40 Fab (Fab, V domains shown, heavy chain (VH-CH1) of the H1 Fab, from the synthetic library KFab-I (human VH3 framework, randomised CDRs); light chain (VL-CL) of the H1 Fab, from the synthetic library KFab-I (human Vk1 framework, randomised CDRs); it is written on the heavy chain as a surmise; Expression vector pKFAB (in-house); source: E. coli Top10F', periplasmic extract, purified (Strep-Tactin XT)) VH: EVQLVESGGGLVQPGGSLRLSCAASGFTFSNYAMSWVRQAPGKGLEWVSGISGSGGTTYYADSVKGRFTISRDNSKNTLYLQMNSLRAEDTAVYYCAGVGTFDVWGQGTLVTVSS VL: DIQMTQSPSSLSASVGDRVTITCRASQTISSWLNWYQQKPGKAPKLLIYAASRLQSGVPSRFSGSGSGTDFTLTISSLQPEDFATYYCQQSYSTPLTFGQGTKVEIK",2.3 nM,–,–,–,–
"H1 (IgG), human anti-hYKL-40 IgG (antibody, V domains shown, VH of H1, as in the heavy chain of m2 (PDB 7CJ2); human VH3 framework; human IgG1 heavy-chain constant region, from the heavy-chain vector (pOptiVEC) used for Herceptin expression as IgG1 backbone; VL-CL (Vk1, Ck1) of H1, as the light chain of m2 (PDB 7CJ2); IgG1, kappa; VL and CL were amplified and joined by overlap extension PCR; VH was cloned into the Herceptin IgG1 backbone; also called H1 …) VH: EVQLVESGGGLVQPGGSLRLSCAASGFTFSNYAMSWVRQAPGKGLEWVSGISGSGGTTYYADSVKGRFTISRDNSKNTLYLQMNSLRAEDTAVYYCAGVGTFDVWGQGTLVTVSS VL: DIQMTQSPSSLSASVGDRVTITCRASQTISSWLNWYQQKPGKAPKLLIYAASRLQSGVPSRFSGSGSGTDFTLTISSLQPEDFATYYCQQSYSTPLTFGQGTKVEIK",–,0.5 nM,binds,binds,0.05 nM
